The values that follow come from patent US20190284299A1 (BEIJING HANMI PHARMACEUTICAL, published 2019).

Assay [1] addresses T1, recombinant human Trop-2 (Sino Biological, Cat. No: 10428-H08H) (human, UniProt P09758 27-274).
T1 construct: Coated on the ELISA plate
T1 sequence (looked up): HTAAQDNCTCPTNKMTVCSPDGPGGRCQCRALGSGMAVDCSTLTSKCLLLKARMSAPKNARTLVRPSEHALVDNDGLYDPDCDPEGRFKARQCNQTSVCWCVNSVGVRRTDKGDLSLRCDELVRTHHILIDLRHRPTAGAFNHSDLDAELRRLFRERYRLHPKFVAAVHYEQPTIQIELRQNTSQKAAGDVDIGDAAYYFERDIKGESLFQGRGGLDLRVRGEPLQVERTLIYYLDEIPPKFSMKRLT
Kind of assay: ELISA, recombinant human Trop-2 coated at 1 ug/mL, anti-human IgG-HRP. Background: An ELISA detects its analyte on a solid surface through an enzyme-linked reagent.

A further assay concerns the target T2, Trop-2 on BxPC3 cells (UniProt P09758 27-323, limits assumed).
T2 construct: whole, on cells; also called BxPC3 cells with high expression Trop-2
T2 sequence (looked up): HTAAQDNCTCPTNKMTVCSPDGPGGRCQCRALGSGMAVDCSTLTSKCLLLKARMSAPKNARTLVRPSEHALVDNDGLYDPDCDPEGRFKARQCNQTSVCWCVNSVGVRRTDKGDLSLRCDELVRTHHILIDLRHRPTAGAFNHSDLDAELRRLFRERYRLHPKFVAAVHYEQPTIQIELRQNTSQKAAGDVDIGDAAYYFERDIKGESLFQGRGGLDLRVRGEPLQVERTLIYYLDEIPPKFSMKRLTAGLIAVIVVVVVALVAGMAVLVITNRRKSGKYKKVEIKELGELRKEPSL
Description: flow cytometry of PKH26-stained BxPC3 and CFSE-stained Jurkat cells, as in Example 9. In general terms: Flow cytometry measures light scatter and fluorescence of single cells or particles in a stream.

B1: heterodimeric anti-Trop-2/anti-CD3-scFv bispecific antibody (bispecific antibody)
heavy: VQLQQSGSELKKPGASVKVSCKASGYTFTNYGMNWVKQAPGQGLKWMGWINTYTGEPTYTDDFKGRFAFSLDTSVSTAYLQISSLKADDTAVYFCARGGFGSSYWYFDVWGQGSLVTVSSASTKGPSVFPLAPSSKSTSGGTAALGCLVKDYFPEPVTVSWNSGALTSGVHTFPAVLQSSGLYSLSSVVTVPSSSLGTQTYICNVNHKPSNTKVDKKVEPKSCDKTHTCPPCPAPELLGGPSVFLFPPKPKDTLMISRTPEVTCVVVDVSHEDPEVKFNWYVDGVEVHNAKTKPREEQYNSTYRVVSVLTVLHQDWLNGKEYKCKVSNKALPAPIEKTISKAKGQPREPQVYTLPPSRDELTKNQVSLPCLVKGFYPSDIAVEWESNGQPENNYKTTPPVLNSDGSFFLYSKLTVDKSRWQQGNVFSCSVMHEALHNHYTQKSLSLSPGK
light: DIQLTQSPSSLSASVGDRVSITCKASQDVSIAVAWYQQKPGKAPKLLIYSASYRYTGVPDRFSGSGSGTDFTLTISSLQPEDFAVYYCQQHYITPLTFGAGTKVEIKRTVAAPSVFIFPPSDEQLKSGTASVVCLLNNFYPREAKVQWKVDNALQSGNSQESVTEQDSKDSTYSLSSTLTLSKADYEKHKVYACEVTHQGLSSPVTKSFNRGEC
scFv: not shown
notes: also called anti-Trop2/anti CD3-scFv heterodimer; Anti-Trop-2/CD3 heterodimeric BsAb
Consider B1, for which the binding result (in assay [1]; in the assay with Trop-2 on BxPC3 cells) was “binds” throughout.
